Legend:
Assay in all cases: cell-based or functional assay
[1] = molecular target: HIV-1 Env of isolate 98IN022 (subtype C) (HIV-1)
[2] = molecular target: HIV-1 Env of isolate MGRM-C-028 (subtype C) (HIV-1)
[3] = molecular target: HIV-1 Env of isolate MGRM-G-017 (subtype G), on pseudovirus (HIV-1)
[4] = molecular target: HIV-1 Env of isolate MGRM-C-020 (subtype C) (HIV-1)
[5] = molecular target: HIV-1 Env of isolate MGRM-G-013 (subtype G), on pseudovirus (HIV-1)
[6] = molecular target: HIV-1 Env of isolate MGRM-C-010 (subtype C) (HIV-1)
[7] = molecular target: HIV-1 Env of isolate MGRM-C-006 (subtype C) (HIV-1)
[8] = molecular target: HIV-1 Env of isolate MGRM-G-004 (subtype G), on pseudovirus (HIV-1)
[9] = molecular target: HIV-1 Env of isolate MGRM-G-024 (subtype G), on pseudovirus (HIV-1)
[10] = molecular target: HIV-1 Env of isolate MGRM-G-009 (subtype G), on pseudovirus (HIV-1)
[11] = molecular target: HIV-1 Env of isolate MGRM-C-017 (subtype C) (HIV-1)
[12] = molecular target: HIV-1 Env of isolate MGRM-C-013 (subtype C) (HIV-1)
[13] = molecular target: HIV-1 Env of isolate MGRM-C-025 (subtype C) (HIV-1)
[14] = molecular target: HIV-1 Env of isolate MGRM-C-027 (subtype C) (HIV-1)
[15] = molecular target: HIV-1 Env of isolate MGRM-G-025 (subtype G), on pseudovirus (HIV-1)
[16] = molecular target: HIV-1 Env of isolate MGRM-C-012 (subtype C) (HIV-1)
[17] = molecular target: HIV-1 Env of isolate MGRM-C-015 (subtype C) (HIV-1)
[18] = molecular target: HIV-1 JR-CSF Env D477A (HIV-1 JR-CSF) (UniProt P20871)
[19] = molecular target: HIV-1 Env of isolate MGRM-G-006 (subtype G), on pseudovirus (HIV-1)
[20] = molecular target: HIV-1 Env of isolate MGRM-G-027 (subtype G), on pseudovirus (HIV-1)
[21] = molecular target: HIV-1 Env of isolate MGRM-C-005 (subtype C) (HIV-1)
[22] = molecular target: HIV-1 Env of isolate MGRM-G-014 (subtype G), on pseudovirus (HIV-1)
[23] = molecular target: HIV-1 Env of isolate MGRM-G-019 (subtype G), on pseudovirus (HIV-1)
[24] = molecular target: HIV-1 Env of isolate MGRM-G-028 (subtype G), on pseudovirus (HIV-1)
[25] = molecular target: HIV-1 Env of isolate MGRM-C-007 (subtype C) (HIV-1)
[26] = molecular target: HIV-1 Env of isolate 97ZA012 (subtype C) (HIV-1)
[27] = molecular target: HIV-1 Env of isolate MGRM-C-009 (subtype C) (HIV-1)
[28] = molecular target: HIV-1 Env of isolate MGRM-C-004 (subtype C) (HIV-1)
[29] = molecular target: HIV-1 Env of isolate MGRM-C-014 (subtype C) (HIV-1)
[30] = molecular target: HIV-1 JR-CSF Env N478A (HIV-1 JR-CSF) (UniProt P20871)
[31] = molecular target: HIV-1 Env of isolate MGRM-C-023 (subtype C) (HIV-1)
[32] = molecular target: HIV-1 Env of isolate 93MW959 (subtype C) (HIV-1)
[33] = molecular target: HIV-1 Env of isolate MGRM-G-015 (subtype G), on pseudovirus (HIV-1)
[34] = molecular target: HIV-1 Env of isolate MGRM-G-016 (subtype G), on pseudovirus (HIV-1)
[35] = molecular target: HIV-1 Env of isolate MGRM-C-019 (subtype C) (HIV-1)
[36] = molecular target: HIV-1 Env of isolate MGRM-C-026 (subtype C) (HIV-1)
[37] = molecular target: aMLV envelope, on pseudovirus (negative control)
[38] = molecular target: HIV-1 Env of isolate MGRM-G-001 (subtype G), on pseudovirus (HIV-1)
[39] = molecular target: HIV-1 Env of isolate MGRM-C-022 (subtype C) (HIV-1)
[40] = molecular target: HIV-1 Env of isolate MGRM-C-008 (subtype C) (HIV-1)
[41] = molecular target: HIV-1 Env of isolate MGRM-C-002 (subtype C) (HIV-1)
[42] = molecular target: HIV-1 Env of isolate MGRM-G-011 (subtype G), on pseudovirus (HIV-1)
[43] = molecular target: HIV-1 Env of isolate MGRM-C-001 (subtype C) (HIV-1)
[44] = molecular target: HIV-1 Env of isolate MGRM-C-024 (subtype C) (HIV-1)

B1: PGT-125 (antibody, V domains shown)
VH: QSQLQESGPRLVEASETLSLTCNVSGESTGACTYFWGWVRQAPGKGLEWIGSLSHCQSFWGSGWTFHNPSLKSRLTISLDTPKNQVFLKLTSLTAADTATYYCARFDGEVLVYNHWPKPAWVDLWGRGIPVTVSS
VL: QSALTQPPSASGSPGQSITISCNGTATNFVSWYQQFPDKAPKLIIFGVDKRPPGVPDRFSGSRSGTTASLTVSRLQTDDEAVYYCGSLVGNWDVIFGGGTTLTVL
IC50 (µg/mL), pseudovirus neutralization [1]: 22.1 µg/mL
IC50 (µg/mL), pseudovirus neutralization [2]: 14 µg/mL
IC50 (µg/mL), neutralization of pseudovirus [3]: > 50 µg/mL
IC50 (µg/mL), pseudovirus neutralization [4]: > 50 µg/mL
IC50 (µg/mL), neutralization of pseudovirus [5]: > 50 µg/mL
IC50 (µg/mL), pseudovirus neutralization [6]: > 50 µg/mL
IC50 (µg/mL), pseudovirus neutralization [7]: 0.015 µg/mL
IC50 (µg/mL), neutralization of pseudovirus [8]: > 50 µg/mL
IC50 (µg/mL), neutralization of pseudovirus [9]: > 50 µg/mL
IC50 (µg/mL), neutralization of pseudovirus [10]: > 50 µg/mL
IC50 (µg/mL), pseudovirus neutralization [11]: 2.36 µg/mL
IC50 (µg/mL), pseudovirus neutralization [12]: > 50 µg/mL
IC50 (µg/mL), pseudovirus neutralization [13]: 42.5 µg/mL
IC50 (µg/mL), pseudovirus neutralization [14]: > 50 µg/mL
IC50 (µg/mL), neutralization of pseudovirus [15]: > 50 µg/mL
IC50 (µg/mL), pseudovirus neutralization [16]: > 50 µg/mL
IC50 (µg/mL), pseudovirus neutralization [17]: > 50 µg/mL
Fold IC50 increase relative to wild-type [18]: 3.4 fold
IC50 (µg/mL), neutralization of pseudovirus [19]: > 50 µg/mL
IC50 (µg/mL), neutralization of pseudovirus [20]: 34.4 µg/mL
IC50 (µg/mL), pseudovirus neutralization [21]: 2.09 µg/mL
IC50 (µg/mL), neutralization of pseudovirus [22]: 0.007 µg/mL
IC50 (µg/mL), neutralization of pseudovirus [23]: > 50 µg/mL
IC50 (µg/mL), neutralization of pseudovirus [24]: 0.012 µg/mL
IC50 (µg/mL), pseudovirus neutralization [25]: > 50 µg/mL
IC50 (µg/mL), pseudovirus neutralization [26]: 2.46 µg/mL
IC50 (µg/mL), pseudovirus neutralization [27]: > 50 µg/mL
IC50 (µg/mL), pseudovirus neutralization [28]: 1.82 µg/mL
IC50 (µg/mL), pseudovirus neutralization [29]: > 50 µg/mL
Fold IC50 increase relative to wild-type [30]: 1.5 fold
IC50 (µg/mL), pseudovirus neutralization [31]: 1.31 µg/mL
IC50 (µg/mL), pseudovirus neutralization [32]: 37.5 µg/mL
IC50 (µg/mL), neutralization of pseudovirus [33]: > 50 µg/mL
IC50 (µg/mL), neutralization of pseudovirus [34]: > 50 µg/mL
IC50 (µg/mL), pseudovirus neutralization [35]: 0.13 µg/mL
IC50 (µg/mL), pseudovirus neutralization [36]: 0.005 µg/mL
IC50 (µg/mL), neutralization of pseudovirus [37]: > 50 µg/mL
IC50 (µg/mL), neutralization of pseudovirus [38]: 0.033 µg/mL
IC50 (µg/mL), pseudovirus neutralization [39]: 1.23 µg/mL
IC50 (µg/mL), pseudovirus neutralization [40]: > 50 µg/mL
IC50 (µg/mL), pseudovirus neutralization [41]: 0.008 µg/mL
IC50 (µg/mL), neutralization of pseudovirus [42]: > 50 µg/mL
IC50 (µg/mL), pseudovirus neutralization [43]: > 50 µg/mL
IC50 (µg/mL), pseudovirus neutralization [44]: > 50 µg/mL
